# Measured values from the supplement of paper PMC12042874.
# ± gives the uncertainty stated by the source.
# Assay: amyloid nucleation score (Sup35N fusion, yeast selection) (log enrichment); library NNK1; higher = more nucleation; inactive = no reads after selection
# Method in brief: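 The nucleation score is a DiMSum log enrichment of output over input reads, centred on the mode score of non-aggregating sequences. Sequences under 100 input reads were excluded, and reads came from Illumina sequencing of plasmid inserts. Psi-negative yeast expressing Sup35N fused to peptides of 20 random codons were induced with 100 μM copper sulfate for 24 hours and grown 7 days at 30°C on medium lacking adenine and uracil. Random libraries had three technical output replicates.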
row,Substance,amyloid nucleation score
1,ELRYCEFTCSISWA,0.744 ± 0.36
2,ELSMCYYWRKSYIQSLGIRW,0.733 ± 0.27
3,ELVKFIVRADNDSWVGRASV,0.267 ± 0.93
4,ELYSDHIMTWM,0.69 ± 0.36
5,EMSIILGIERRNHCVPAMVS,-0.552 ± 1.9
6,EMVLLNATFYYAYCHSNRLR,0.227 ± 0.27
7,EMYCVYSFRSYFVYGLSLGS,-0.269 ± 0.36
8,ENARHRCDQ,0.571 ± 0.38
9,ENFPPAQ,-0.691 ± 0.5
10,ENIPARRLKCPFNTP,-0.511 ± 1.2
11,ENITPPLYNDDYRYQ,0.305 ± 0.58
12,ENLRHTLHKFITI,0.262 ± 0.62
13,ENRTSNFPYKVR,0.421 ± 0.26
14,ENWATFEEYPT,0.243 ± 0.3
15,ENYTCRTWAPLSGPRIWVGS,0.661 ± 0.77
16,EPCCDVRVKGLYMFEYYVVC,0.185 ± 1.1
17,EPCMWKVILYCEYVSLVFVK,-0.974 ± 1.9
18,EQLACQNVVSGCQSA,0.277 ± 0.97
19,ERAQYMSRTVRRVSFKSFFC,3.55 ± 0.13
20,ERLGMWDSRMVQLWDSFCIE,0.363 ± 0.48
21,ERPTWVGGDGSSGLVVGSDL,-0.22 ± 0.81
22,ERSARGGHPMLAFYMTIPTP,-0.067 ± 1.2
23,ESIFLRRTVALHRKVCLIDW,0.783 ± 0.36
24,ESMLSSIRGLHNG,-0.851 ± 1.7
25,ESMWVGLKINAVSNYR,0.3 ± 0.55
26,ESVDGTSHAVGIMNGRLKID,1.93 ± 0.1

row,Substance,amyloid nucleation score
1,EVEQVHLFSAVINSWCGDVF,0.575 ± 0.41
2,EVFDDCGGLMNYM,inactive
3,EVFNEKSVSLRGWNIHGNFC,0.03 ± 0.94
4,EVMPPLKLPRHFEEIRAEAG,-0.184 ± 0.51
5,EVRTEMIHCNLLTMRFCVLA,0.047 ± 0.64
6,EWTSAWW,-0.355 ± 0.36
7,EWVLFDAHAGRLVVPEH,-0.995 ± 1
8,EYGVGDKVIWDDMI,-0.151 ± 0.27
9,EYIMYYWIRIVYFVINGYLV,0.534 ± 0.36
10,EYNGCYFPRIM,0.628 ± 0.66
11,EYNSFWTVVSMILTVKWLSG,0.502 ± 0.24
12,FADNWLCKIRYSCGISLSKY,-0.739 ± 0.39
13,FAFRRSI,0.332 ± 0.9
14,FANFIAVMVTGTILF,inactive
15,FANLDSMNLIGKGFSMNYAL,-0.614 ± 0.97
16,FAQMWSLALRISVRNVISQF,5.954 ± 0.047
17,FASILVFQNGSIATCAINWV,0.694 ± 0.84
18,FATIVFVVKNENFMNADTLR,5.68 ± 0.08
19,FATMGSKKCSGARHSKRGSC,-0.26 ± 0.34
20,FAVINSPNKAGNRITRLGTY,0.681 ± 0.47
21,FAYEAWLMR,-0.077 ± 0.27
22,FAYKVLTLMNKPEGKVQSDV,-1.41 ± 2.4
23,FCARGRNRPN,1.04 ± 0.5
24,FCEDKNRRSSPSIWQNNCKM,0.829 ± 0.16
25,FCFLGRCEQHYYLEVHNGSE,-0.1 ± 0.49
26,FCLFGRLVTFLAVKMYVNCE,-0.529 ± 0.3

row,Substance,amyloid nucleation score
1,FCMTMRSARCGHLSMYCCFQ,1.8 ± 0.4
2,FCNNAPRQEWPILN,-1.31 ± 0.49
3,FCRRGSWVEPLLTCRYAMEA,-0.155 ± 0.64
4,FCSLLHPFTWYLSEHSMGLG,0.541 ± 0.57
5,FCTLALHNTI,1.24 ± 0.64
6,FCWHAFLSVTRFGRKIFFRF,0.426 ± 0.35
7,FCWLSMRAIRISSS,0.531 ± 0.44
8,FCYIHGILGRSVEYDDFCLL,0.184 ± 0.36
9,FDIIK,-0.358 ± 1.4
10,FDLRLRWRVA,0.295 ± 0.27
11,FDMCSGISGD,0.839 ± 0.36
12,FDNTGDCTNFYQLSDWSP,1.05 ± 0.22
13,FDSQDSISFGDGTFKSVWPM,0.177 ± 0.31
14,FDVIGSCVGDQWTAGMDWTL,0.429 ± 0.51
15,FDVYFSVPFFTLLYNDPKWF,2.35 ± 0.12
16,FDWGGTAYKKA,1.01 ± 0.97
17,FECCAVLLYMGRVNACRVCC,-0.281 ± 0.44
18,FEDEPGVSFWNSGGFK,-1.07 ± 0.62
19,FEDGTCALR,-0.059 ± 0.62
20,FEKTIHFV,0.43 ± 0.36
21,FELGLNCCFLGLVVYAQVNA,inactive
22,FFAGSQIFIHRSLEWI,1.68 ± 0.17
23,FFCERVLPVRVVC,1.06 ± 0.76
24,FFFALFFQRSTTRGWLSGQL,0.91 ± 0.62
25,FFGCCSRGARIDHVSRNHLL,0.185 ± 0.52
26,FFGHAEDFLYMIRVHAGNNL,-0.379 ± 0.41

row,Substance,amyloid nucleation score
1,FFGLFQLETWA,0.02 ± 0.37
2,FFGMLDPSTER,-0.73 ± 0.36
3,FFINQRDLLS,-0.084 ± 0.46
4,FFLMISKLAKWKGVARKTAL,-0.937 ± 2.1
5,FFLMQYILYYKKQSDMFVSL,-0.912 ± 1.7
6,FFLVRMCKSRDVTVTVGGSH,1.53 ± 0.14
7,FFRIACL,-0.704 ± 0.45
8,FFRIARCHLEDRWVMIAGVL,0.118 ± 0.68
9,FFRRS,0.924 ± 0.26
10,FFSMSSVTNKFSTSCRLNHS,3.18 ± 0.099
11,FFSPSNKNYKR,-0.215 ± 0.35
12,FFSYRDSISVKR,-0.449 ± 0.75
13,FFVVVRAHIDPR,0.188 ± 0.5
14,FFYNLFDILFFSFFRILSII,inactive
15,FGANHCKRSNGK,0.233 ± 0.22
16,FGDSFLSYGHMLIFFWYMTM,1.21 ± 0.64
17,FGHYALRANILLTPITKGMS,0.892 ± 0.56
18,FGIPAHNLLCYGCFLNWILV,inactive
19,FGLEK,1.25 ± 0.64
20,FGLYYLSNSEFMYVDRFHLG,-0.575 ± 0.38
21,FGNRELFLYFVCVKRDILVG,-1.23 ± 0.64
22,FGQCSSLVLT,inactive
23,FGRGHGLTGR,0.25 ± 0.63
24,FGRVRCLESEICSCGFFVDE,3.03 ± 0.15
25,FHDLGSKCYSMRGTADCFSR,0.347 ± 0.72
26,FHPKFWCNRFS,-0.442 ± 0.72

row,Substance,amyloid nucleation score
1,FHTRVKEWVGPAFLGSANLG,0.25 ± 0.5
2,FIEHTYVEEG,0.19 ± 0.23
3,FIHALLSNYVSIIFSNDRIC,2.31 ± 0.59
4,FIIISACSWLLSNWKTSGST,6.974 ± 0.056
5,FIIPDRVRFLKGMTSFVNSS,-0.349 ± 1
6,FILPLCMGVLLSAIETLGTC,1.09 ± 0.81
7,FIPQFYSVAMKLGCVRFVVL,0.577 ± 0.56
8,FIRFLNTVGSWSLWMPYMVF,0.851 ± 0.42
9,FIRLLGSMV,0.622 ± 0.84
10,FIRVMRA,inactive
11,FISVMTLRLEKFEVVGDMKL,-0.43 ± 0.39
12,FIVERDTHQGMHFGLMLING,0.286 ± 0.62
13,FIYMQSVCAWFISWNSFR,0.355 ± 0.86
14,FIYVDSGDKNGYCACDKFLP,6.059 ± 0.052
15,FKDLNIWDWKNGAHITNCLG,1.05 ± 0.63
16,FKEFTAIDKSRSVLLNLEPD,inactive
17,FKKSNLPSIVWRCDAWLGSS,0.334 ± 0.3
18,FKLGFGVYIVVGKEGFVVSR,2.02 ± 0.23
19,FKRFLSLVCV,0.1 ± 0.53
20,FKSVFVRTIHATYIVSWAN,-0.413 ± 1.5
21,FKYYQAGSYNRKRMTQDGGS,0.175 ± 0.46
22,FLCMPL,0.266 ± 0.41
23,FLICVTSNWLGTYCRVERFW,0.023 ± 0.35
24,FLKDIYVYVTLVCHLRSLAS,-0.589 ± 0.49
